Reference: the supplement of paper PMC10567573

B1: APBB1IP (parent)
chain: SQVSMWDQRWQDHQPLLPITDVP
B2: FBF1 (parent)
chain: FGDSPKAEKRQIGDQEGPRPARST

Variants of: B1
Experiment: protein stability index of a GFP-peptide fusion (GPS, HEK-293T) (PSI 1-6); higher = more stable
Settings: c terminus: native
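Also: lentivirally expressed fusions sorted by FACS into six bins by GFP to DsRed ratio, PSI derived from sequencing read proportions per bin multiplied by bin number.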

| Variant | protein stability index |
| --- | --- |
| L16S | 2.98 |
| L16T | 2.92 |
| L16V | 2.54 |
| L16W | 2.23 |
| L16Y | 3.06 |
| L17A | 3.32 |
| L17C | 2.06 |
| L17D | 3.79 |
| L17E | 3.68 |
| L17F | 2.06 |
| L17G | 3.81 |
| L17H | 3.2 |
| L17I | 1.85 |
| L17K | 3.67 |
| L17M | 2.17 |
| L17N | 3.1 |
| L17P | 2.84 |
| L17Q | 2.59 |
| L17R | 2.26 |
| L17S | 2.34 |
| L17T | 2.58 |
| L17V | 2.71 |
| L17W | 2.96 |
| L17Y | 2.19 |
| P18A | 2.91 |
| P18C | 1.82 |

| Variant | protein stability index |
| --- | --- |
| P18D | 3.42 |
| P18E | 2.55 |
| P18F | 1.36 |
| P18G | 1.76 |
| P18H | 2.38 |
| P18K | 2.1 |
| P18L | 1.41 |
| P18M | 1.71 |
| P18N | 2.56 |
| P18Q | 1.71 |
| P18R | 2.29 |
| P18S | 2.12 |
| P18T | 1.31 |
| P18W | 1.28 |
| P18Y | 2.07 |
| I19A | 2.67 |
| I19C | 2.15 |
| I19D | 4.17 |
| I19E | 3.36 |
| I19F | 2.79 |
| I19G | 3.67 |
| I19H | 3.78 |
| I19K | 4.04 |
| I19L | 2.03 |
| I19M | 2.62 |
| I19N | 3.55 |

| Variant | protein stability index |
| --- | --- |
| I19P | 3.04 |
| I19Q | 2.87 |
| I19R | 3.17 |
| I19S | 3 |
| I19T | 3.03 |
| I19V | 2.17 |
| I19W | 1.36 |
| I19Y | 2.84 |
| T20A | 2.33 |
| T20C | 2.34 |
| T20D | 2.67 |
| T20F | 2.58 |
| T20G | 1.77 |
| T20H | 2.37 |
| T20I | 1.79 |
| T20K | 3.24 |
| T20L | 1.92 |
| T20M | 2.04 |
| T20N | 3.23 |
| T20P | 2.7 |
| T20Q | 2.61 |
| T20R | 2.32 |
| T20S | 3.27 |
| T20V | 1.65 |
| T20Y | 1.88 |
| D21A | 2.56 |

| Variant | protein stability index |
| --- | --- |
| D21C | 5.18 |
| D21E | 1.77 |
| D21F | 1.44 |
| D21G | 1.94 |
| D21H | 1.75 |
| D21K | 2.44 |
| D21M | 1.62 |
| D21N | 1.7 |
| D21P | 2.07 |
| D21Q | 1.53 |
| D21S | 1.6 |
| D21T | 2.88 |
| D21W | 1.63 |
| D21Y | 1.65 |
| V22A | 2.31 |
| V22C | 2.06 |
| V22D | 3.85 |
| V22E | 3.45 |
| V22F | 2.72 |
| V22G | 2.42 |
| V22H | 2.75 |
| V22I | 2.19 |
| V22K | 3.37 |
| V22L | 2.43 |
| V22M | 2.53 |
| V22N | 2.69 |

| Variant | protein stability index |
| --- | --- |
| V22P | 2.83 |
| V22Q | 2.98 |
| V22R | 2.99 |
| V22S | 2.8 |
| V22T | 2.65 |
| V22W | 2.19 |
| V22Y | 1.91 |
| P23A | 2.56 |
| P23C | 2.85 |
| P23D | 3.6 |
| P23E | 2.9 |
| P23F | 2.21 |
| P23G | 1.91 |
| P23H | 2.58 |
| P23I | 2.48 |
| P23K | 2.03 |
| P23L | 2.06 |
| P23M | 1.19 |
| P23N | 1.81 |
| P23Q | 1.61 |
| P23R | 4.33 |
| P23S | 3.01 |
| P23T | 2.01 |
| P23W | 2.17 |
| P23Y | 2.74 |

Variants of: B2
Experiment: as above
Settings: c terminus: a fixed tail appended

| Variant | protein stability index |
| --- | --- |
| F1A | 5.87 |
| F1C | 4.95 |
| F1D | 5.81 |
| F1E | 5.52 |
| F1G | 5.72 |
| F1H | 5.52 |
| F1I | 5.41 |
| F1K | 5.79 |
| F1L | 5.36 |
| F1M | 5.85 |
| F1N | 5.54 |
| F1P | 5.58 |
| F1R | 5.67 |
| F1S | 5.51 |
| F1T | 5.76 |
| F1W | 5.69 |
| F1Y | 5.42 |
| G2A | 4.53 |
| G2C | 4.19 |

| Variant | protein stability index |
| --- | --- |
| G2D | 4.94 |
| G2E | 5.83 |
| G2F | 4.63 |
| G2H | 4.58 |
| G2I | 3.83 |
| G2K | 4.72 |
| G2M | 4.96 |
| G2N | 4.16 |
| G2P | 5.29 |
| G2Q | 4.99 |
| G2R | 5.98 |
| G2S | 4.96 |
| G2T | 4.82 |
| G2V | 1.77 |
| G2W | 5.31 |
| G2Y | 5.18 |
| D3A | 4.79 |
| D3C | 4.62 |
| D3E | 5.41 |
